Legend:
human TrkB-His = biological target: T1, human TrkB-His (human, UniProt Q16620 32-430); assay: BLI off-rate, mAb captured
T1 construct: in-house fusion of the TrkB ECD with poly-His, HEK293; also called huTrkB-His; hTrkB-His; not shown: poly-His tag

human TrkA-His = human TrkA-His (human, UniProt P04629 33-417, limits assumed); assay: ELISA
human TrkC-His = human TrkC-His (human, UniProt Q16288 32-429); assay: ELISA
[1] = biological target: TrkB in PathHunter eXpress TrkB Functional Assay cells (modified U2OS); assay: cell-based or functional assay
mouse TrkB-ECD-GST = biological target: T2, mouse TrkB-ECD-GST (mouse, UniProt P15209 32-429); assay: ELISA
T2 construct: extracellular domain; in-house fusion, HEK293; also called mTrkB-ECD-GST; mTrkB (ELISA); not shown: glutathione S-transferase (GST) fusion part

human TrkA-His, sequence (P04629 33-417 limits assumed): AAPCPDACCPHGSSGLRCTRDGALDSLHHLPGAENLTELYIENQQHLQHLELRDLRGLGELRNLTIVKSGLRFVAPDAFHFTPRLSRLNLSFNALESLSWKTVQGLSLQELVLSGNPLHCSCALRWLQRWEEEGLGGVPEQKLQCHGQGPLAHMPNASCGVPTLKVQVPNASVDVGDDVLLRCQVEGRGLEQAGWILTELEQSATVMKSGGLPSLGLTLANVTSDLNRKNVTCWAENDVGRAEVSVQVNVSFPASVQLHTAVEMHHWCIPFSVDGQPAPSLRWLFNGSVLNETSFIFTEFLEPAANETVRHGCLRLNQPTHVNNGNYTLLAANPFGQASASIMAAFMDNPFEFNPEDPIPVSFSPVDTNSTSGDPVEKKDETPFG

| Binder | koff (human TrkB-His) [s⁻¹] | binding result (human TrkA-His) | binding result (human TrkC-His) | TrkB activation (EC50) [1] [µg/mL] | binding result (mouse TrkB-ECD-GST) |
| --- | --- | --- | --- | --- | --- |
| anti-TrkB clone 3H11 (antibody, V domains shown, full-length IgG) VH: QVQLQQSGPGLVKPSQTLSLTCAISGDSVSSNSAVWNWIRQSPSRGLEWLGRTYYRSKWYTDFAVSVKSRITINPDTSKNQFSLQLNSVTPEDTAVYYCARGRNGMDVWGQGTMVTVST VL: LPVLTQPPSASGTPGQRVTISCSGSSSNIGHKYVYWYQQLPGAAPKLLIYRNNQRPSGVPDRFSASKSGTSASLAISGLRSEDEADYYCATWDDSLNGVVFGGGTKVTVL | 0.0057 | no binding (tested: up to 10 µg/mL) | no binding (tested: up to 10 µg/mL) | 0.02 | binds |
| anti-TrkB clone 3E04 (antibody, V domains shown, full-length IgG) VH: EVQLVQSGAEVKKPGESLKISCKGSGYSFTSYWIGWVRQMPGKGLEWMGIIYPGDSDTRYSPSFQGQVTISADKSISTAYLQWSSLKASDTAMYYCASRLLFGDDAFDIWGQGTMVTVSS VL: SYVLTQPPSVSVSPGQTATITCSGDKLGDEYVSWYQQKPGQSPVLVIYQDSKRPSGIPERFSGSNSGNTATLTISGAQAVDEADYYCQAWDSNAGAFGTGTKLTVL | 0.00534 | no binding (tested: up to 10 µg/mL) | no binding (tested: up to 10 µg/mL) | 0.11 | binds |
| anti-TrkB clone 6E08 (antibody, V domains shown, full-length IgG) VH: QVQLVQSGGGVVQPGRSLRLSCAASGFTFSSYAMHWVRQAPGKGLEWVAVISYDGSNKYYADSVKGRFTISRDNSKNTLYLQMNSLRAEDTAVYYCARAFRRYDAFDIWGQGTLVTVSS VL: DIQMTQTPLSLSVTLGQPASISCRSSQGLVYSDGNTYLNWFQQRPGQSPRRLIYKVSNRDSGVPDRFSGSGSGTDFTLKISRVEAEDVGVYYCMQGTHWPPAFGQGTKVEIK | 0.0064 | no binding (tested: up to 10 µg/mL) | no binding (tested: up to 10 µg/mL) | 4.2 | binds |
| anti-TrkB clone 3F06 (antibody, V domains shown, full-length IgG) VH: QMQLVQSGAEVKKPGESLKISCKGSGYSFSTNWIGWVRQMPGKGLEWMGIIYPGDSDTRYSPSFQGQVTISADKSISTAYLQWSSLKASDTAMYYCARFYDSSGNDYWGQGTLVTVSS VL: QSVLTQPPSVSVSPGQTASITCSGDKLGDKYASWYQQKPGQSPVLVIFQDNKRPSGIPERFSGSNSGNTATLTISGTQAMDEADYYCQTWDSSTAIFGGGTKLTVL | 0.00479 | no binding (tested: up to 10 µg/mL) | no binding (tested: up to 10 µg/mL) | 0.14 | binds |
| anti-TrkB clone 3F09 (antibody, V domains shown, full-length IgG) VH: EVQLVQSGAEVKKPGESLKISCKGSGYSFTSYWIGWVRQMPGKGLEWMGIIYPGDSDTRYSPSFQGQVTISADKSISTAYLQWSSLKASDTAMYYCVVRPAAAGTRIDYWGQGTLVTVSS VL: QSVLTQPPSVSVSPGQTASITCSGDKLGDKYASWYQQKPGQSPVLIIYQDNKRPSGIPERFSGSNSGNTATLTISGTQAMDEADYYCQAWDSSTYVFGTGTKLTVL | 0.00631 | no binding (tested: up to 10 µg/mL) | no binding (tested: up to 10 µg/mL) | 0.053 | – |
| anti-TrkB clone 4F03 (antibody, V domains shown, full-length IgG) VH: EVQLVQSGAEVKKPGESLKISCKGSGYSFTSYWIGWVRQMPGKGLEWMGIIYPGDSDTRYSPSFQGQVTISADKSISTAYLQWSSLKASDTAMYYCASWGMDVWGQGTLVTVSS VL: QPVLTQPPSASGTPGQRVTISCSGSSSNIGTHTVNWYQQFPGTAPKLLMYSTFQRPSGVPDRFSGSKSGTSASLAISGLQSEDEADYYCAAWDDSLNGPVFGGGTQLTVL | 0.00639 | no binding (tested: up to 10 µg/mL) | no binding (tested: up to 10 µg/mL) | 0.041 | – |
| anti-TrkB clone 3C02 (antibody, V domains shown, full-length IgG) VH: QVQLVQSGAEVKKPGESLKISCKGSGYSFTSYWIGWVRQMPGKGLEWMGIIYPGDSDTRYSPSFQGQVTISADKSISTAYLQWSSLKASDTAMYYCARGGPPDYWGQGTLVTVSS VL: not shown | 0.00494 | no binding (tested: up to 10 µg/mL) | no binding (tested: up to 10 µg/mL) | 0.15 | binds |
| anti-TrkB clone 3B09 (antibody, V domains shown, full-length IgG) VH: EVQLVQSGAEVKKPGESLKISCKGSGYSFTSYWIGWVRQMPGKGLEWMGIIYPGDSDTRYSPSFQGQVTISADKSISTAYLQWSSLKASDTAMYYCATPMEDGMDVWGQGTTVTVSS VL: QAGLTQPPSVSVSPGQTVTITCSADNLGDKYTSWYQQRPGQSPVLVIYQDTKRPSGIPARFSGSNSGNTATLTISGTQAMDEADYYCQAWDSSTGVFGTGTKVTVL | 0.00472 | no binding (tested: up to 10 µg/mL) | no binding (tested: up to 10 µg/mL) | 0.094 | binds |
| anti-TrkB clone 1E07 (antibody, V domains shown, full-length IgG) VH: QVQLVQSGAEVKKPGESLRISCKGSGYSFTNNWINWVRQMPGKGLEWMGRIDPDDSYTNYSPSFQGHVIFSADKSSNTVYLQWSSLEASDTAMYYCARRAQGGGGYDYWGQGTLVTVSS VL: QSVLTQPPSVSGAPGQRVTISCTGSSSNIGAGFNVHWYQQVAGLAPKLLIHDNINRPSGVPDRFSGSKSGASASLTITGLQAEDEADYYCQSYDSSLSGWFAFGTGTKVTVL | 0.00613 | no binding (tested: up to 10 µg/mL) | no binding (tested: up to 10 µg/mL) | 0.13 | binds |
| anti-TrkB clone 3A06 (antibody, V domains shown, full-length IgG) VH: not shown VL: QSVLTQPPSVSVSPGQTASITCSGDKLGNKYASWYRQKPGQSPVLVIYQDTKRPSGIPERFSGSNSGNTATLTISGTQAMDEGDYYCQAWDSSTAVVFGGGTKLTVL | 0.00453 | no binding (tested: up to 10 µg/mL) | no binding (tested: up to 10 µg/mL) | 0.15 | binds |
| anti-TrkB clone 3A05 (antibody, V domains shown, full-length IgG) VH: QVQLVESGAEVKKPGESLKISCKGSGYSFTTYWIAWVRQMPGKGLEWMGIIYPGDSDTRYSPSFQGQVTISADKSISTAYLQWSSLKASDTAMYYCARLGGGMDVWGQGTMVTVSS VL: QAGLTQPPSASGTPGQRVTISCSGSSSNIGSNTVSWYRQIPGTAPKFLLYGNNQRPSGVPARFSGSKSGTSASLAVDGLQSDDEADYYCAAWDDSLSGYVFGTGTKLTVL | 0.00435 | no binding (tested: up to 10 µg/mL) | no binding (tested: up to 10 µg/mL) | 0.006 | binds |
| anti-TrkB clone 3B04 (antibody, V domains shown, full-length IgG) VH: QVQLVQSGAEVKKPGEPLKISCKGSGYSFPTYWIAWVRQMPGKGLEWMGIIYPGDSDTRYSPSFQGQVTISADKSISTAYLQWGSLRASDTAMYYCARGGSGLDYWGQGTLVTVSS VL: SYELMQPPSVSVSPGQTASITCSGDKLGTKYVSWYQQKPGQSPVLVIYQDSKRPSGIPERFSGSNSGNTATLTISGTQAMDEADYYCQAWDSSTVVFGGGTKLTVL | 0.00802 | no binding (tested: up to 10 µg/mL) | no binding (tested: up to 10 µg/mL) | 0.1 | binds |
| anti-TrkB clone 6F04 (antibody, V domains shown, full-length IgG) VH: EVQLVQSGAEVKKPGESLKISCKGSGYSFTSYWIGWVRQMPGKGLEWMGIIYPGDSDTRYSPSFQGQVTISADKSISTAYLQWSSLKASDTAMYYCARGSGGYDYWGQGTLVTVSS VL: QSVLTQPPSVSVSPGQTASITCSGNKLGDKFVSWYHQRPGQSPVLVIYEDNKRPSGIPERFSGSNSGNTATLTISGTQAMDEGDYYCQTWDVSSYVFGTGTKVTVL | 0.00473 | no binding (tested: up to 10 µg/mL) | no binding (tested: up to 10 µg/mL) | 0.035 | binds |
| anti-TrkB clone 6B04 (antibody, V domains shown, full-length IgG) VH: QVQLVQSGAEVKKPGESLKISCKGSGYSFTSYWIGWVRQMPGKGLEWMGIIYPGDSDTRYSPSFQGQVTISADKSISTAYLQWSSLKASDTAIYYCARLGGAMDVWGQGTLVTVSS VL: SYELMQPPSLSVSPGQTASITCSGDKLGDKYVSWYQQRPGQSPVLVMYQDKKRPSGIPKRFSGSNSGNTATLTISGTQAMDEADYYCAAWDDSLNGYYVFGTGTQLTVL | 0.00678 | no binding (tested: up to 10 µg/mL) | no binding (tested: up to 10 µg/mL) | 0.039 | binds |
| anti-TrkB clone 5C07 (antibody, V domains shown, full-length IgG) VH: QVQLVQSGAEVKKPGESLKISCKGFGYSFTNYWIGWVRQMPGKGLEWMGIIYPGDSDTRYSPSFQGQVTISADKSITTAYLQWSSLKASDTAMYYCASHTKDGTWDIWGQGTMVTVSS VL: QAGLTQPPSVSVSPGQTASITCSGERLGDKYVSWYQQKPGQSPVLVIYQDDKRPSGVPERFSGSNSGNTATLNISGTQPMDEADYYCQAWDSSTSLYVFGTGTKLTVL | 0.00457 | no binding (tested: up to 10 µg/mL) | no binding (tested: up to 10 µg/mL) | 0.47 | binds |

From patent publication US20260092121A1 (TALEM THERAPEUTICS, published 2026)
